Source: PMC3811051 (Nature methods, 2013)

Target: the molecule itself
Assay: SEC

B1: LanYFP, yellow fluorescent protein from Branchiostoma lanceolatum (natural protein, UniProt B1PNC0 1-219, looked up)
chain: MSLPATHELHIFGSFNGVDFDMVGRGTGNPNDGYEELNLKSTKGALQFSPWILVPQIGYGFHQYLPFPDGMSPFQAAMKDGSGYQVHRTMQFEDGASLTSNYRYTYEGSHIKGEFQVIGTGFPADGPVMTNSLTAADWCVTKMLYPNDKTIISTFDWTYTTGSGKRYQSTVRTNYTFAKPMAANILKNQPMFVFRKTELKHSKTELNFKEWQKAFTDVM
- stoichiometry N: 4
